According to EP3344659B1 (Immunwork Inc., dated 2025):

Target: T1, human fibrinogen (human, UniProt P02671 20-629; P02675 31-491; P02679 27-437, limits assumed)
T1 construct: Bought from Sigma and coated on 96-well plates; also called fibrinogen plate
T1 sequence (looked up) 1: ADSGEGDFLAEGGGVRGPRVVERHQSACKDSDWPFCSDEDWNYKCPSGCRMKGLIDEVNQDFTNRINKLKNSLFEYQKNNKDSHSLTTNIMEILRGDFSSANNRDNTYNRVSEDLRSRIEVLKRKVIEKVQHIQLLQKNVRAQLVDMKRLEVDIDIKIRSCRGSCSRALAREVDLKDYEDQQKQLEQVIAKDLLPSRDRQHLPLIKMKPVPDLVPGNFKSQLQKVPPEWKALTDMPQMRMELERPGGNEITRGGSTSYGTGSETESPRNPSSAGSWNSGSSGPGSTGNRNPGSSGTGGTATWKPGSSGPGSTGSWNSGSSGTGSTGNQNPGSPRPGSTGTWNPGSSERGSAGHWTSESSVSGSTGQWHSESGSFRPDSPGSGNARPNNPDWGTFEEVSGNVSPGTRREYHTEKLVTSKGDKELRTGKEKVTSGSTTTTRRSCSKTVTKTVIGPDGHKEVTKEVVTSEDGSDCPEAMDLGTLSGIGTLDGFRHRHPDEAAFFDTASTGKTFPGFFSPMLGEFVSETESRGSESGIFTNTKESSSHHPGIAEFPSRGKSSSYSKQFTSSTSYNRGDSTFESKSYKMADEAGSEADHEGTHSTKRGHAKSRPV
T1 sequence (looked up) 2: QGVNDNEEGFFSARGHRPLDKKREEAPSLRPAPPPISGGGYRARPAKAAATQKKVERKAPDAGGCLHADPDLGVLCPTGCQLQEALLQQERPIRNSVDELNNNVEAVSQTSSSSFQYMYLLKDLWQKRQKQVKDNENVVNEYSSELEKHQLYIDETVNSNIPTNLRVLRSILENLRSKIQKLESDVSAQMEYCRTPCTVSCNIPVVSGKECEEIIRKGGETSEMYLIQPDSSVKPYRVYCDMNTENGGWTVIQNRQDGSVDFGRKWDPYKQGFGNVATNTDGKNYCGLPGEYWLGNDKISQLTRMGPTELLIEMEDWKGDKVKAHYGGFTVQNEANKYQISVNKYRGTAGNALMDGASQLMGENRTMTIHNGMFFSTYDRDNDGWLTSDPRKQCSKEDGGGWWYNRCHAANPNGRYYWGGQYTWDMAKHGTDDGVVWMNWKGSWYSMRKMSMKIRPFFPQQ
T1 sequence (looked up) 3: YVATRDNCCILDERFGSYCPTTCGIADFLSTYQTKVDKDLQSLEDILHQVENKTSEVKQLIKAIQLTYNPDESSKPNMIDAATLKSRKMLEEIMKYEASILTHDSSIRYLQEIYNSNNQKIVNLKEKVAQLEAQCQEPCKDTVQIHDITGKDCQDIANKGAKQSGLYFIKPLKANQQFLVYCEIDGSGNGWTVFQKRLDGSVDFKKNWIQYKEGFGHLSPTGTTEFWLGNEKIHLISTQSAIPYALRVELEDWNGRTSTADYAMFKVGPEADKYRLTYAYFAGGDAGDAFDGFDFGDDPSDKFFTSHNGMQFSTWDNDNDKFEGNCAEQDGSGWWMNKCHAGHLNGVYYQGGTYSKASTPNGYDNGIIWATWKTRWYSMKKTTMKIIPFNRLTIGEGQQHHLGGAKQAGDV
Assay: ELISA on fibrinogen-coated plate (1 µg/well)

B1: 102-10 scFv specific for human fibrin (scFv)
scFv: DIQMTQSPSSLSASLGGKVTITCKASQDINKYIAWFQHKPGKGPRLLIHYTSTLQPGIPSRFSGSGSGRDYSFSISNLEPEDLATYYCLQYDNLTWTFGGGTKLEIKRGSTSGSGKPGSGEGSTKGQIQLVQSGPELKKPGETVKISCKASGYTFTNYGMNWVKQAPGKGLKWMGWINTYTGEATYADDFKGRFAFSLETSANTAYVQINNLKNEDTATYFCARLMDYWGQGTSVTVSSGGGGSGGGGSC
  binding result: no binding
